Laboratory results taken from patent US12018066 (TRIAD NATIONAL SECURITY, dated 2024).

target: T1, SARS-CoV spike protein receptor binding domain (RBD1) (SARS-CoV, UniProt P59594 306-527); assay: ELISA, crude human minibody

Binder | binding result
G07 human minibody (scFv-human Fc) (Fc fusion) scFv-Fc: QSVLIQPPSASGTPGQRVTISCSGSNSNFGSNSVSWYQQRPGTAPKLLIEGNNQRPSGVPERFSGSKSGTSASLAISGLQSEDEAEYSCASWDDSLNAFVFGPGTKLTVLSGGSAITSYNVYYTKLSSSGTQVQLVQSGAEVKKPGESLKISCKGSGYSFTSYWIGWVRQMPGKGLEWMGIIYPGDSDIRYSPSFQGQVTISADKSFSSAYLQWSSLKASDTAMYYCARLGATGAFDIWGQGTTVTVSS | no binding
R26 human minibody (scFv-human Fc) (Fc fusion) scFv-Fc: SYELTQPPSVSVAPGQTATITCGGKNIESKSVHWYQQKPGQAPVLVVSDDTDRASGIPERFSGSNSGGAATLTISRVEAGDEADYYCQVWDSPSDHYVFGPGTKLTVLSGGSTITSYNVYYTKLSSSGTQVQLVESGGGVVQPGRSLRLSCAASGFTFSSYAMHWVRQAPGKGLEWVAVISYDGSNKYYADSVKGRFTISRDKAKNTLYLQMNSLRGEDTAVYYCARELSYYDSSGYLRGDWYFDLWGRGTLVTVSS | no binding
E01 human minibody (scFv-human Fc) (Fc fusion) SYELTQPPSVSVAPGETARITCGGDNIGRRHVHWYQQKPGQAPVLVIYDDSDRPSGIPDRFSGSNSGNTATLTIGRVEAGDEADYYCQVWGSSNDPHVFGTGTKLTVLSGGSTITSNNVYYTKLSSSGTQVQLQQWGAGLLKPSETLSLKCAVYGGSFSGYYWGWIRQSTGKGLEWIGEINRSGSTNYNPSLKSRVTISVDTSKNQFSLKLSSVTAADTAVYYCARGGARYYYGSGSYRSTPRPYYFDYWGQGTLVTVSS | no binding
D11 human minibody (scFv-human Fc) (Fc fusion) scFv-Fc: SYELTQPPSVSVAPGQTARITCGGNNIGSKSVHWYQQKPGQAPVLVVYDDSDRPSGIPERFSGSNSGNTATLTISGTQAMDEADYYCQAWDSSTAYVFGSGTKLTVLSGGSTITSYNVYYTKLSSSGTQVQLEESGGGLVQPGGSLRLSCAASGFTFSNYAMSWVRQAPGKGLEWVSAISGSGGATFHADSVKGRFTISRDNSKNTLYLQMNSLRAEDTAVYYCARRVGYDSSGYYWSDAFDIWGQGTMVTVSS | no binding
H02 human minibody (scFv-human Fc) (Fc fusion) scFv-Fc: QSVVTQPPSVSAAPGQKVTISCSGSSSNIGNNYVSWYQQLPGTAPKLLIYRDTQRPSGVPDRFSGSKSGTSASLAISGLRSEDEADYYCATWDKSLSGPVFGGGTKVTVLSGGSTITSYNVYYTKLSSSGTQVQLQQSGPGLVKPSQTLSLTCAISGDSVSSNSAAWNWIRQSPSRGLEWLGRTYYRSKWYNDYAVSVKSRIIINPDTSKNQFSLQLNSVTPEDTAVYYCARQDNNPYYGLDVWGQGTTVTVSS | no binding
H05 human minibody (scFv-human Fc) (Fc fusion) scFv-Fc: SYVLTQPPSVSVAPGQTARITCGANNIGRISVHWYQQKPGQAPVLVVYDDSDRPSGIPERFSGSNFGNTATLTISRVEAGDEADYYCQVWDSYSDHVIFGGGTKLTVLSGGSTITSYNVYYTKLSSSGTQVQLVQSGAEVKKPGSSVKVSCKASGGTFSSYAISWVRQAPGQGLEWMGGIIPIFGTANYAQKFQGRVTITADESTSTAYMELSSLRSEDTAVYYCARSIFGVVIISHADGYYYGMDVWGQGTTVTVSS | no binding
H03 human minibody (scFv-human Fc) (Fc fusion) scFv-Fc: SYELTQPPSVSVAPGQTARITCGGNNIGSKSVHWYQQKPGQAPVLVIYYDSDRPSGIPERFSGSNSGNTATLTISRVEAGDEADYYCQVWDSSSALYVFGTRTKVTVLSGGSTITSYNVYYTKLSSSGTQVQLVESGGGLVQPGRSLRLSCAASGFTFDDYAMHWVRQAPGKGLEWVSGISWNSGSIGYADSVKGRFTISRDNAKNSLYLQVNSLRAEDTAVYYCARELIVGTTSPQTDAFDIWGQGTMVTVSS | no binding

target: T1, SARS-CoV spike protein receptor binding …; assay: ELISA, crude rabbit minibody

Binder | binding result
G07 rabbit minibody (scFv-rabbit Fc) (Fc fusion) scFv-Fc: QSVLIQPPSASGTPGQRVTISCSGSNSNFGSNSVSWYQQRPGTAPKLLIEGNNQRPSGVPERFSGSKSGTSASLAISGLQSEDEAEYSCASWDDSLNAFVFGPGTKLTVLSGGSAITSYNVYYTKLSSSGTQVQLVQSGAEVKKPGESLKISCKGSGYSFTSYWIGWVRQMPGKGLEWMGIIYPGDSDIRYSPSFQGQVTISADKSFSSAYLQWSSLKASDTAMYYCARLGATGAFDIWGQGTTVTVSS | no binding
H01 rabbit minibody (scFv-rabbit Fc) (Fc fusion) scFv-Fc: QPGLTQPPSVSLAPGQTARITCGGNNIGSKSVHWYQQKPGQAPVLVVYDDSDRPSGIPERFSGSNAGNTATLTISRVEAGDEADYYCQVWDSRSDQYVFGTRTKLTVLSGGSTITSYNVYYTKLSSSGAQVTLKESGPVLVKPTETLTLTCTVSGFSLSNARMGVSWIRQPPGKALEWLAHIFSNGEKSYSTSLKSRLTISKDTSKSQVVLTMTNMDPVDTATYYCARTLDYYDSSGYLVGGAFDIWGQGTMVTVSS | no binding
D07 rabbit minibody (scFv-rabbit Fc) (Fc fusion) scFv-Fc: SYELTQPPSVSVAPGETARMTCGGNNIGTKGVHWYQQKPGQAPVLVVYDDSDRPSGIPERFSGSNAGNTATLTISRVEAGDEADYYCQVWDSRSDQYVFGTRTKLTVLSGGSTITSYNVYYTKLSSSGAQVTLKESGPVLVKPTETLTLTCTVSGFSLSNARMGVSWIRQPPGKALEWLAHIFSNGEKSYSTSLKSRLTISKDTSKSQVVLTMTNMDPVDTATYYCARTLDYYDSSGYLVGGAFDIWGQGTMVTVSS | no binding
E08 rabbit minibody (scFv-rabbit Fc) (Fc fusion) scFv-Fc: SYVLTQPPSVSVAPGKTARITCGGNNIGWKSVHWYQQKPGQAPVLVVYDDSDRPSGIPERFSGSNSGNTATLTISRVEAGDEADYYCQVWDSSSDLVVFGGGTKLTVLSGGSTITSYNVYYTKLSSSGTQVQLVQSGAEVKKPGSSVKVSCKASGGTFSSYAISWVRQAPGQGLEWMGGIIPIFGTANYAQKFQGRVTITADESTSTAYMELSSLRSEDTAVYYCARASGRWLQFWHYYGMDVWGQGTTVTVSS | binds
B10 rabbit minibody (scFv-rabbit Fc) (Fc fusion) scFv-Fc: QSVVTQPPSVSGAPGQRVTISCTGSSSNIGSRTVNWYQQLPGTAPKLLIYANNQRPSGVPDRFSGSKSGTSASLAISGLQSEDEADYYCAAWDDSLNGYVFGTGTKLTVLSGGSTITSYNVYYTKLSSSGTQVQLQQSGPGLVKPSQTLSLTCAISGDSVSSNSATWNWIRQSPSRGLEWLGRTYYGSKWHSDYAVSVKSRITINPDTSKNQISLHLNPVTPEDTAVYYCARGRSYAFDIWDQGTMVTVSS | no binding
B04 rabbit minibody (scFv-rabbit Fc) (Fc fusion) scFv-Fc: SYVLTQPPSVSVAPGKTARITCGGNNIGIRSVHWYQQKPGQAPVLVIYYDSDRPSGIPERFSGSKSGNTATLTISRVEAGDEADYYCQVWDSSSDHPVFGGGTKLTVLSGGSTITSYNVYYTKLSSSGTQVQLVESGAEVKKPGASVKVSCKASGYTFTRYYMHWVRQAPGQGLEWMGIINPSGGTTSYAQKFQGRVTMTRDTSTSTVYMELSSLRSEDTAVYYCARSFGELTSFDYWGQGTLVTVSS | no binding
D10 rabbit minibody (scFv-rabbit Fc) (Fc fusion) scFv-Fc: QSVVTQPPSASGSPGQTVTISCSGNSANIGGNPVNWYQQLPGTAPKLLIYSNNQRPSGVPDRFSGSKSGISASLAISGLQSEDEADYYCAAWDDSLNGVIFGGGTKLTVLSGGSTITSYNVYYTKLSSSGTQVQLVQSGAEVKKPGESLKISCKGSGYSFTSYWIGWVRQMPGKGLEWMGIIYPGDSDTRYSPSFQGQVTISADKSISTAYLQWSSLKASDTAMYYCARRHSGSYSGAFDIWGQGTMVTVSS | no binding
D11 rabbit minibody (scFv-rabbit Fc) (Fc fusion) scFv-Fc: SYELTQPPSVSVAPGQTARITCGGNNIGSKSVHWYQQKPGQAPVLVVYDDSDRPSGIPERFSGSNSGNTATLTISGTQAMDEADYYCQAWDSSTAYVFGSGTKLTVLSGGSTITSYNVYYTKLSSSGTQVQLEESGGGLVQPGGSLRLSCAASGFTFSNYAMSWVRQAPGKGLEWVSAISGSGGATFHADSVKGRFTISRDNSKNTLYLQMNSLRAEDTAVYYCARRVGYDSSGYYWSDAFDIWGQGTMVTVSS | no binding
H02 rabbit minibody (scFv-rabbit Fc) (Fc fusion) scFv-Fc: QSVVTQPPSVSAAPGQKVTISCSGSSSNIGNNYVSWYQQLPGTAPKLLIYRDTQRPSGVPDRFSGSKSGTSASLAISGLRSEDEADYYCATWDKSLSGPVFGGGTKVTVLSGGSTITSYNVYYTKLSSSGTQVQLQQSGPGLVKPSQTLSLTCAISGDSVSSNSAAWNWIRQSPSRGLEWLGRTYYRSKWYNDYAVSVKSRIIINPDTSKNQFSLQLNSVTPEDTAVYYCARQDNNPYYGLDVWGQGTTVTVSS | no binding
H05 rabbit minibody (scFv-rabbit Fc) (Fc fusion) scFv-Fc: SYVLTQPPSVSVAPGQTARITCGANNIGRISVHWYQQKPGQAPVLVVYDDSDRPSGIPERFSGSNFGNTATLTISRVEAGDEADYYCQVWDSYSDHVIFGGGTKLTVLSGGSTITSYNVYYTKLSSSGTQVQLVQSGAEVKKPGSSVKVSCKASGGTFSSYAISWVRQAPGQGLEWMGGIIPIFGTANYAQKFQGRVTITADESTSTAYMELSSLRSEDTAVYYCARSIFGVVIISHADGYYYGMDVWGQGTTVTVSS | no binding
H03 rabbit minibody (scFv-rabbit Fc) (Fc fusion) scFv-Fc: SYELTQPPSVSVAPGQTARITCGGNNIGSKSVHWYQQKPGQAPVLVIYYDSDRPSGIPERFSGSNSGNTATLTISRVEAGDEADYYCQVWDSSSALYVFGTRTKVTVLSGGSTITSYNVYYTKLSSSGTQVQLVESGGGLVQPGRSLRLSCAASGFTFDDYAMHWVRQAPGKGLEWVSGISWNSGSIGYADSVKGRFTISRDNAKNSLYLQVNSLRAEDTAVYYCARELIVGTTSPQTDAFDIWGQGTMVTVSS | no binding
D04 rabbit minibody (scFv-rabbit Fc) (Fc fusion) scFv-Fc: SYVLTQPPSVSVAPGKTARITCGGNNIGWKSVHWYQQKPGQAPVLVVYNDNDRPSGVPERFSGSNSGNTATLTISRVVAGDEADYYCQVWDSSSDHVLFGGGTKLTVLSGGSTITSYNVYYTKLSSSGTQVQLVQSGAEVKKPGSSVKVSCKASGGTFSSYAISWVRQAPGQGLEWMGGIIPIFGTANYAQKFQGRVTITADESTSTAYMELSSLRSEDTAVYYCARASGRWLQFWHYYGMDVWGQGTTVTVS | no binding
